Data from the NTF2 design screens of Basanta et al. (2020).

experiment: protease stability score; higher = more stable; yeast display proteolysis, trypsin and chymotrypsin;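 also: relative to predicted unfolded state with 0 unfolded-like and 1 meaning tenfold more protease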

| Sequence | protease stability score |
| --- | --- |
| DEEHEEYHRMFRVVEHAYRTGDWKTLSDYMDPNAKQTVGNKEYHGREQVDESLKRLGIKVTDVEDSKEDHINGRLVVRLDQHLEVNGRRIKIHVLIIIIKINGRWIITENMYIFH | 0.141 |
| TEEEEHTDMVRRIWVEIAKTGDERSWEKYFDPNARMHIFFNGQEIELHGRETITKWLHETLTRIKGLRMEIEHFENIGDKVHMDTRFIIGDKERKSEVEIIVVDGRLKSVTIRHR | 1.78 |
| TDEDRELHEAAELLIESTWTGDFDFLLELLDPNVRLVINGKHDHGREDIWEVLRRLLERLGLDRVRVKIKHIDSFDGRLHLNINLNFNGRQFRYHYESYKVNGQWVVRRIEVREK | 1.89 |
| TEEYRHVEEVIRMTFELLRTGNEQELEDRADPHAKSNVNGQEIHGRERFTRWFLEMITHLGVKHVRVRHYTVVNGRVIVHLEFDFDGVKIDYTVVIWKINGKWFIKISHEEHH | 2.09 |
| TEDDRIFKEALELWVFAMNTGDERILFEMVDPHVRFVIGDKEYHGMEWRHKVLIELRIHRVRLEITHRDQFNGRIHIDGILQIDGEFNGRRDKTETEVRVTYTKFDGKWYYKEVIHL | 1.44 |
| DENETALREVIKRYFKAILTGDEHELENLLDPNVRVEINGVKLHGMRDYLEWIREWRIKDMRIRIEHVEVIGNKMIIDSRLRVNETVNGVTRDREKKLHLIVTKINGRWHIEEINEE | 2.16 |
| DENDTARKIIKTLLDIMREGDEDKLRDQMDPNVRADVGDKTVHGREHAAKFLAHIVKRADHISITLKSLHNHNGRLRMQAEVRIVHNGRTERVTLEMVFRDHNGKLLIERMKYG | 2.36 |
| SEEEEMAHRVLEILLYALRTGDEKWMRKLVDPNVRLHVNGVEFHGRDEYTKFLHEHINRFDHFHSLTVTEIRHQGDFIVLHTILNIQWDGRSTRIDIHIIVLKVNGRWLLHSSSIE | 1.25 |
| EEEKEHLTHMAKLFHDLTQTGDEHLFNHLADPHVKIDVHIGDKDLHFHGREEFLWWILEIIEQWRIEFDLRDTIPVNGKVHVKTDIKINVNGREHRIETRLHLVIVNGKLKESEIRVS | 1.69 |
| SELEEILKIARRFFEIVMRTGDPRDIERLLDPNAKLIIDGQEIHGREKMSNTFEEMVRRYDVVKSIEDKDWKIVNGRVDLDITLNGRVDGKDISTRVIIHVEKINGRWFMREVNIE | 2.14 |
| TELEEEVERLMEIFHKAFETGDEHELKRLADPHVRLDFNGRDIHGMDFIIREWLKIKNMRFRIHLDHVELQGEKVHIDGKVEEDFDGVHRHHRVILIWEKYDGRWHHKRMHVK | 1.43 |
| TELEDELRKMFESWRHNSRTGNEHAEDNNMDPNVKLLIDGRTVVGMEFYRKWVHEARIEDSHVDHHTVIDGRAHVHMTLNSNYNGVHRRLEIELVSEKIDGKWRLKSIIIR | 1.51 |
| DETERWAHLMLKLMQRYQETGDEDSLLELMDPEAKIDINGKEIHGREEWREHRYHHLRELGHTNIDVRVHLRRMHNVGDKANVRGELRININGKKLSVDVIIIILKIDGRWVIESLRLE | 0.736 |
| REEEKNLHTQMRLFAHALWTGDEDEIHRNMDPHVRSDIDGRELVGREWMIRLIEELRIRHVHIRHFHLQGDKLHLDTISHVIVNGVEVDMHTRVDVEKVNGRWLITSIRFD | 1.18 |
| SEEEKEAKDALEKLWHYWHTGDEHELVRLADPTMRHIINGRHFHGREFFSELLRRLGFKHIIYHFEDMDVQGDKVHIHGHIESEFDGRRHHMNTHLIILKVNGKWIYESIKFD | 1.32 |
| SEEQEITEHFSHLWLEWYLTGDFHKMLKFADPNTKMHIGDKHDHGMERYQEYERRFLEQYKGAKIYIKTVEHYDGRVVIDNIFRFDGREYQLIIEIIVVDGRLKSVHSDMK | 1.25 |
| SEEEHMIELIVKWYSRALETGDEEELAEMLDPNTRLDVDGKDIHGRENILKRRKKHLDHLGHERIEIHFDVSHIDYIGDKVIIHVKLILHYNGREIHLDVKMLIVKINGRWRFRHFESK | 1.93 |
| DEDERLLKELLESLIKSHRTGDWEHLRENADPRTRLEIGDKEIIGMEKVTHFWERERKRADHEHIEIHDMKIYDGVAHVDTRLHFHFNGVDITLEFRLIMLKVNGRWILKSEHLK | 0.133 |
| DEDEERMHWMVEVLLRMLETGNEEIVKRLVDPNARVHTEDHSSMGREEFSRFMLELAKRFDVFHDVELKHVEVQGEKIILDGKFHIEVNGRRNYLDIELIIIKIDGRWKIEEVRFH | 1.25 |
| SEDHRHAMEFIHHMVRAIHTGDEQILTEYLDPHVRIENENETLHGWEHRTEWMKRFDHIDRHIIVRHVEIQGNKVKVDAELRFRLHQGDFVEENEIRLRIIILKVDGRWVLHKVRFI | 1.35 |
| DEEERHVQTLYEIFLKLEITGNEHAIKRLLDPHTRLHINGREHHGREEVVEAVRFWLTEWRIHHFKIHNREVQGDKMYMDTRLEVEFNGVNEEVHMIIIMQKIDGRWILRRIEIE | 2.25 |
| DEEDEITDRLAKLLQHAYHTGDWKLWLNLADPHVRVDFNGVEIHGREEITDWFRKHYRDLGVTRFEVHVHHIHNIGDKIVQETHLLVNGRTFRTEVTIIVINGRVKSEHVNLR | 0.848 |
| DEEALKKLQDILRRNDQDKMNKMIDKDVRVVIGEHEYRGKRNVQEALKREYEHADRFEVKHIEDHGDKLHVDVVLRVDGRDIRFVVVIDVHNGNIRNVKVDFTDEDTQRDFQRQLD | 1.02 |
| DEHEEMVRIFIKLFIHNSHTGNEEELTRMADPHTKVDVNGKEYIGREEWRRFFMELGVDHVEVRRVHVQGEKAEVDLELNIDGRVIRFHIYTLKINGKWIIKSLEVR | 1.78 |
| SESEEASREAIHLMIESWRTGNEHILDRLMDPNVRNRIDGRDLIGRENFLEVLRHLEEKMGIDHIEFDTERVRWVGDKAESDTRFETVYNGKNVEISTKVHWEKVNGRWHIREIRFH | 1.17 |

| Sequence | protease stability score |
| --- | --- |
| DEEEERTERVSQLFWELFLTGDEEELFKLVDPHVRSHVGDKDYHGRETAHEIWHRIKNVRMRLDHVELRIVNGRADLHVRGKLIIGDKKVELNIEILVVKVNGQWLVERIRVETK | 1.31 |
| SEDEEHAREFIKILFELLLTGDFKARLERLDPHTRLDVDGKDVHGMENINDLWLRIVEKYKNIQIHFHIHDVSIIGDKIHLHVHVEINVNGVNLRHEELTIVQKFNGKWIIKERHYI | 1.38 |
| DDWHEEMREMLELLLRALFTGDEKHLVENLDPNVKIIFDGKDLHGRRDASKLIHEYGVDHITRHKIHDSKFFNGRLDVDGIFDQTVNGRREEVHRRIILLKFDGRWWIHRIEIR | 1.63 |
| DSLEKHTEDSLRFFLHILRTGDEEELSDLLDPRTRYEFNGKEFHGREQVVEVLIRLAEHIRIEELHVTHVEVYGDKVNSETLLIVDVDGQKRILHTRVLATKVNGKWLFQRIRIV | 2.17 |
| DEDNREIKHAIHLLLTAFLTGNEDWLKELADPNVRILFNGRLFHGREHFLKFLLKFLRDYGIDHNHIQHSHLEIQGNFVHTHLHLEIDVNGRRQEFELRVISEKINGRWHLRELEVHIR | 2.43 |
| SEDEEYSHFASELFLNIFETGDWKTLLHYMDPNTRLVVNGRHHHGWKFMVEFLLHARIHTTRLKDIRTVNGKVDVDGRVDGHINGQKEERVFIINITKVNGVWILESVIIE | 0.986 |
| DEDQEEMYKALNHLLTLLKTGDEHVLKRLIDPHVRVEIDGKDRHGMSFLLEIIKEELIRIDHIKDFRIHHVEMVGDKAENHVKLIGEWNGKEFRLRMHVYSWKFDGKWIMKSIKIE | 1.75 |
| DEDEKIARDQLEHFFHSVQTGNEDELRRLLDPNTYIDINGRTYHGREEVVKWMVHWFEHARLRRVHIRHSRSIGDKIILDTKMNVDINGVERHLDVNVIYLKVDGKWINHSEIVK | 1.56 |
| SEEEEEVLRFLKEWIHRLRTGDEDILRELLDPDVRIEAENRESHGREEATRLLSEIRFEHFFIESIKVQGNKVSIHGRVHGVINGKKFKHHIHIILVKVNGKWQFREIDIH | -0.107 |
| DHHEETIRHFAKLWVELWLTGDEKSLQTLADPHVRVHINGVDLHGRDAIHHFLRRIEERYKGLRIDVEEQRIVNGRTEMITEIHIGDKVWRTRLHVVVVDGRIHELSFKDE | 2.25 |
| DEDKRHADRWVDELRRVMLTGDFDTYVEMLDPHVRIEVGDKVIHGREDLIKFMRERLDRLGYERVEIRIEVSDREKQGDKIELHGTLHLFIGDKEHTHKIRIWIRKVNGQWIAESERVQ | 1.71 |
| SEEEELRHELAHRWLRAFETGNFHMLLELFDPNTYFEVGDKKFHGREEVSKLLEEIWEHIRFEHVKVREVRLQGDKLHIDGETDGRVNGRDEKRKVEFEVTVINGVIHSVIIRIK | 2.46 |
| SEMEEHAERVWRIMLTLLLTGDEEKFNHLADPNTRLIIIIGDKELHFHGRHEISNYLHRYLREIRIDHFHEHSITVQGNWVHTDGIMLGRFDGKRHEIRVHIHLIVIDGRIKEIYLENR | 1.64 |
| HENEHRMKEFVREVFDLRRTGNWEQLQELFDPNVRIEIGDKRYHGWENLSHFLLHARQDMHIEVTSVEVQGDKIIADGRLEYTLRVGDKDVTYDHRTIIIAHKFNGKWFFTTERIK | 1.33 |
| SEEDVLHHELARIYWRDFVTGDEDSLRRLMDPEAKVNFDGRENHGREFYEEILRLFLEKFRGVRFEEHRSRFIGEFTHIDVRMHIDGKTHSLKVLVTVVNGKVHSIHIQLR | 1.26 |
| SEEDKEFEDLIKFWIHLLETGDFDTLRDLADPHVRVTIDGRDLHGREILLTFWEKVKNIKLDLKSIRVINGVVIMHGDTNFDGKRSHVELHIKKINGRWYITEFRIE | 2.25 |
| RDEDRDRHHAWREFERIMLTGDWRESEKLIDPHVRLDIDGRRHHGMEIYSTLLYHISTRADHIRVILDDIKVQGEKVEVDTIIDIHVGDKHIHIKTHIVASKINGRWFLHSLKID | 0.929 |
| DELQRDSEEAFELVLRVLRTGDEETMSRLADPHTRINVHQGDKIVEFHGREDFERFMHDLLRKFPNMRIDAERVHTFNGQVVINHRLHVNGQERDLHIFSLKIDGRWHLKHVELKLK | 1.73 |
| DKREEIAREIWKMFDDAVFTGNEETLERMADPNVRFIIGDKHLIGMRDEIHWLREIRVHIELSRIHDIHLQGDKIHIDSHNDIEIIINGQERRHETKYMIDIRKVNGRWIIERVEIR | 0.818 |
| TEEERIRRHAVELWVRSMRTGDEETSVDLADPRTKADINGVEIHGMEIVSKFFREMLEQYDVREFHIHSIDVIGDKVVTDMELILRVGDFENRTHIEFIVHKFDGKWRIEEIRLH | 0.934 |
| DETKEAIDRLFEVIHRMMITGDEHEFMKLVDPNVKVIQGEKIYHGREVIVNMLREILKWAGVENIQSHLDPERVHIQGDKLLVRGRLELRIGDKSEERDVEFVVVKVDGRWLIRVWKIE | 2.74 |
| SEEEKEAERMLRLWIETVKTGNEEVWRELFDPNARMLIGDKESVGREQIEELVRSVYDRLGAKVIHDFYIDRIHVIGDKVEIDSRVDSIINGRRYHLETHIIFVKINGKWVLKSVELR | 2.06 |
| SERDEVAHLAFEYLINTHQTGDWRLFKEYLDPNVRFHVGDKFFHGRESVSKFFEEEMHRLGFKHIEMEHFEQQGDYLTINLTVRVDGQEYKLIYFALKVDGRWILRSITFE | 1.38 |
| SEHLEIAMRVIREDLIKSSTGDWRRLEDYLDPHVKIQVGNKEIVGWEEVEKNMEHLRIEFRDYRIKDARNIDGKINVHGEIVEIIRVGNKTYQMRTEVDFIATKVDGQWTIHSIRFN | 1.15 |
| DENHEVAEYILKILVESLETGNEELFKRLIDPNVRIEINGVEVHGWQFWIDHIDELRIRRVEAILRDAREYNGRIDMDTELKMDGEIDGVRTETSRRVRMVLEKVNGRWYVREIRIE | 2.39 |
